Residue numbers refer to the chain shown, from its start.
B1: Anti-CLDN 18.2-5C9o (humanized antibody h5C9o) (antibody, V domains shown)
VH: EVQLVESGGGLVQPGGSLRLSCAVSGYTFSMNWVRQAPGKGLEWVAWINMYTGEPTYADDFKGRFTISRDDSKNTLYLQMNSLRAEDTAVYYCARLYNGNSLDYWGQGTLVTVSS
VL: DIQMTQSPSSLSASVGDRVTITCKSSQSLLNSGNQKSYLTWYQQKPGKAPKLLIYWASTLESGVPSRFSGSGSGTDYTLTISSLQPEDFATYYCQNAYSFPFTFGQGTKVEIK
notes: Humanized IgG; The general method joins the variable domains to human IgG1 constant domains; Full chains are not mapped to the name; also called CLDN18.2-h5C9o
B2: humanized anti-Claudin 18.2 antibody h5C9oao (antibody, human IgG1, kappa, V domains shown)
VH: B1 VH with Y97A, N98R, L102M
VL: DIQMTQSPSSLSASVGDRVTITCKSSQSLLNSGNQKSYLTWYQQKPGKAPKLLIYWASTLESGVPSRFSGSGSGTDYTLTISSLQPEDFATYYCQNAYFFPFTFGQGTKVEIKR
B3: humanized anti-Claudin 18.2 antibody h5C9oan (antibody, human IgG1, kappa, V domains shown)
VH: B1 VH with L96S, Y97S, N98R, S101G, L102F
VL: B2 VL
B4: Anti-CLDN 18.2-5C9ob (humanized antibody h5C9ob) (antibody, human IgG1, V domains shown)
VH: B1 VH
VL: B1 VL with S99F
notes: the general method uses human IgG1 constant domains; also called CLDN18.2-h5C9ob
B5: h5C9o Fc mutation (antibody, V domains shown)
VH: B1 VH
VL: B2 VL with F99S
B6: Anti-CLDN 18.2-5C9oae (humanized antibody h5C9oae) (antibody, human IgG1, V domains shown)
VH: B1 VH with N98R
VL: B1 VL with S99F
notes: the general method uses human IgG1 constant domains
B7: Anti-CLDN 18.2-3B8 (antibody, V domains shown)
VH: EVKLVESGGGLVKPGGSLKLSCAASGFTFSSYAMSWVRQTPEKRLEWVASISSGGSTYYPDSVKGRFTISRDNARNILYLQMSSLRSEDTAMYYCASFGYDVAMDYWGQGTSVTVSS
VL: DVLMTQTPLSLPVSLGDQASISCRSSQSIVHSNGNTYLQWYLQKPGQSPKLLIYKVSNRFSGVPDRFSGSGSGTDFTLKISRVEAEDLGVYYCFQGSHVPFTFGSGTKLEIK
notes: Mouse monoclonal antibody; also called monoclonal antibody 3B8
B8: Anti-CLDN 18.2-5C9oag (humanized antibody h5C9oag) (antibody, human IgG1, V domains shown)
VH: B1 VH with Y97A, N98R, L102I
VL: B1 VL
notes: as for B6
B9: Anti-CLDN 18.2-5C9oai (humanized antibody h5C9oai) (antibody, human IgG1, V domains shown)
VH: B1 VH with Y97A, N98R, L102M
VL: B1 VL
notes: as for B6

Target: T1, human Claudin 18.2 (CLDN 18.2) expressed on HEK293 / HEK293T cells (human)
T1 construct: Full-length CLDN18.2 on transiently or stably transfected HEK293/HEK293T cells; also called CLD18.2
T1 sequence (chain, as listed by the source limits assumed): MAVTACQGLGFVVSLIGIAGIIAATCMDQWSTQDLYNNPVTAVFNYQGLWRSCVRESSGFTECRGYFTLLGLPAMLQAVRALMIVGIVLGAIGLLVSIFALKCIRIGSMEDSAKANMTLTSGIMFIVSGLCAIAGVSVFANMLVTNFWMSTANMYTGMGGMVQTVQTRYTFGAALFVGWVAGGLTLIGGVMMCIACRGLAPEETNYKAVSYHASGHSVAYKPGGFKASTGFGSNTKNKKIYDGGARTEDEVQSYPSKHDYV
Test: cell-based ELISA (InCell Elisa) on fixed HEK293_CLDN18.2 cells, OD450; Kd table under the graph, no unit in the table, unit from the x axis log[antibody] ug/ml

Kd [µg/mL]	Binder
0.126	B1
0.149	B2
0.168	B3
0.153	B4
0.213	B5
0.123	B6

Target: T1, human Claudin 18.2 (CLDN 18.2) …
Test: flow cytometry on HEK293 cells transiently transfected with GFP and human CLDN 18.2
Description: After cell detachment using 2 mM EDTA/PBS cells were washed with complete growth medium and plated at approximately 1-5×10⁵ cells/well in U-bottom microtiter plates. Cells were incubated for […]. at 4° C. with monoclonal antibody 3B8 followed by three washing steps with ice cold PBS and finally incubation with Dylight 650-conjugated secondary anti-IgG antibody. Binding was assessed by flow cytometry using a BD, Accuri™ C6 Plus. Fluorescence marker expression was plotted on the horizontal axis against antibody binding on the vertical axis. Mouse antibodies 3B8 were detected to bind specifically to the surface of fluorescence marker expressing HEK293 cells (FIG. 3, cells in Q5-UR).

EC50 [µg/mL]	Binder
1 to 2	B7

Target: T1, human Claudin 18.2 (CLDN 18.2) …
Test: cell-based ELISA (InCell Elisa) on fixed HEK293_CLDN18.2 cells, y axis RLU; Kd table under the graph, no unit in the table, unit from the x axis log[antibody] ug/ml

Kd [µg/mL]	Binder
0.154	B2
0.194	B3
0.206	B4
0.225	B5
0.191	B8
0.184	B6
0.18	B9

Target: T1, human Claudin 18.2 (CLDN 18.2) …
Test: cell-based ELISA (InCell Elisa) on formalin-fixed HEK293_CLDN18.2 cells, OD450; Kd box under the graph, no unit in the box, unit from the x axis log[antibody] nM; the curve on HEK293T cells stays flat at about 0.1

Kd [nM]	Binder
0.169	B1

— patent US20200207857A1 (SPARX BIOSCIENCE, published 2020)
